Data taken from a protein production outcome set (Wang et al. 2014).

Test: label from the status in PepcDB records
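Note: failed if final PepcDB status was selected cloned or expressed and not failed if soluble or beyond.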

| Sequence | protein production |
| --- | --- |
| MDHKDLAQRILRDIGGEDNIVAAAHCATRLRLVLKDTKDVDRQSLDDDPDLKGTFETGGMFQIIVGPGDVDHVFKELDDATSKDIAVSTEQLKDVVANNANWFSRAVKVLADIFVPLIPILVGGGLLMAINNVLVAQDLFGPQSLVEMFPQISGVAEMINLMASAPFAFLPVLVGFTATKRFGGNEFLGAGIGMAMVFPSLVNGYDVAATMAAGEMPMWSLFGLDVAQAGYQGTVLPVLVVSWILATIEKFLHKRLKGTADFLITPVLTLLLTGFLTFIAIGPAMRWVGDVLAHGLQGLYDFGGPVGGLLFGLVYSPIVITGLHQSFPPIELELFNQGGSFIFATASMANIAQGAACLAVFFLAKSEKLKGLAGASGVSAVLGITEPAIFGVNLRLRWPFFIGIGTAAIGGALIALFNIKAVALGAAGFLGVVSIDAPDMVMFLVCAVVTFFIAFGAAIAYGLYLVRRNGSIDPDATAAPVPAGTTKAEAEAPAEFSNDSTIIQAPLTGEAIALSSVSDAMFASGKLGSGVAIVPTKGQLVSPVSGKIVVAFPSGHAFAVRTKAEDGSNVDILMHIGFDTVNLNGTHFNPLKKQGDEVKAGELLCEFDIDAIKAAGYEVTTPIVVSNYKKTGPVNTYGLGEIEAGANLLNVAKKEAVPATP | failed |
| MDHQFGYGVEVTGLSPSVTHNDLIDFFSFSGTIQDIDIVRSGEQACTAYVMFKDSYSQETAVLLTGATILDQRVCITRWGQHHEEFDFWNATSRGFEDESDSQHYAQRSEFNAGEAVTKAQEVVKIMLATGFVLGKDALSKAKAFDESHGVSAAAVARVSQLEQRIGLTDKIFTGLEAVRMTDQRYHVSDTAKSAVFATGRTAAAAATSVVNSSYFSSGALWLSGALERAAKAASDLGTRGSRQ | failed |
| MDHTSPTYMLANLTHLHSEQLLQGLNLLRQHHELCDIILRVGDVKIHAHKVVLASVSPYFKAMFTGNLSEKENSEVEFQCIDETALQAIVEYAYTGTVFISQDTVESLLPAANLLQIKLVLKECCAFLESQLDPGNCIGISRFAETYGCRDLYLAATKYICQNFEAVCQTEEFFELTHADLDEIVSNDCLNVATEETVFYALESWIKYDVQERQKYLAQLLNSVRLPLLSVKFLTRLYEANHLIRDDRTCKHLLNEALKYHFMPEHRLSHQTVLMTRPRCAPKVLCAVGGKSGLFACLDSVEMYFPQNDSWIGLAPLNIPRYEFGICVLDQKVYVIGGIATNVRPGVTIRKHENSVECWNPDTNTWTSLERMNESRSTLGVVVLAGELYALGGYDGQSYLQSVEKYIPKIRKWQPVAPMTTTRSCFAAAVLDGMIYAIGGYGPAHMNSVERYDPSKDSWEMVASMADKRIHFGVGVMLGFIFVVGGHNGVSHLSSIERYDPHQNQWTVCRPMKEPRTGVGAAVIDNYLYVVGGHSGSSYLNTVQKYDPISDTWLDSAGMIYCRCNFGLTAL | failed |
| MDHVQISVQKLDEILKLNGSALLNRVTLDIHQQLKSHCTCVVEVAHLQHAAHTISFASGGEISDNLSYHLSGTPCEKVAKDIGEHIFYQDQVYKRFPEDQMFQDDGVQAYLGLPLKTQSGEVLGILLSTFTRSIHAKEAQDVLELHRFYANVIIHSLREKWVSERSDKLLNQLSYEVSHDNLTGLLNRSCLADTLETLTQQATRPFNLAYLDIDNFKSINDINGNYIGDQIIKFTANAIQQSLSSPNNAFRVAGDEFAFITYDEDPVAVCQEVLDKIEAGYSDKSNRISFTVSIGIARAPVHMLNSDELILNASLALKDCKKHRDTRIQHYDTHLSALYHRQTQLIEAMRIQLSTSITESHELYVVLQPIVDVNNDRWDYFEILARWNSSVYGNISPAEFIEAAEQSGLIIELGERIIELACIAKQELEAHLGYTVKLSINCSAHELVDSNRYINHLTTLLERYGHDASDFVIELTETVLLSQSGREQMVLNSLRYLGFKVALDDFGTGYSSLNYIHNYPIDSIKIDATFVRNMLSNKTSEQVVYLIAQLAQLLDVDLIAEGVEDDRALNKLIDMGCHYIQGYFYSRPHNVDELVHMINDRQVKRA | failed |
| MDIISSYSPIHVVGGGLAGSEAAWQIASAGVPVILHEMRGVRGTDAHKTDGLAELVCSNSFRSDDATSNAVGVIHAEMRMAGSLIMAAADRHQVPAGGALAVDRDGFSDAVTRAIHDHPLITVMREEITGLPPSDWDLAIVATGPLTAPSLAAAIQAETGEDSLAFFDAIAPIVYRESIDMDICWYQSRYDKVGPGGTGKDYINCPMDEAQYNAFVNALIAGDTVGFKEWEGTPYFDGCLPIEVMAERGRETLRHGPMKPMGLTNAHNPTVKAYAVVQLRQDNALGTLYNMVGFQTKLKYGAQAEIFRMIPGLENAEFARLGGLHRNTYINSPTLLDPSLTLKSRPGLRFAGQITGCEGYVESASVGLMAGRFAAAERKGEAISLPPATTALGSLLGHITGGHIVTDEEPGKRSFQPMNINFGLFPELEPGSIVKPEGVKRFRGKDKTIMKRQLIARRALADCAAWLGQTRTLAERA | failed |
| MDILDLNKAQAVQQNEQEVEDKERESKEPVVLEDLSALAWLELEEFSRLSGLPKERILELVNLGKIKSKISSNKLLIDASSGTNALIKKVENSLISMDMNGRSLEPVFVEKTINTILNLHDKVIGAKDETISAFKNENMFLKDALISMQEVYEEDKKTIDLLRDELNQAREEIEFMKRKYRLMWGKVADMSSVNKK | failed |
| MDINMFILYFFIYSVLGWAWEEVFCSISEKKLVYRGFLYGPYCPIYGFGVTTVLMMILPFQNNLWALFIFSMIICTVIEYVTATILEALFHTTWWDYHNWPLNVKGRICLPISIFWGFACIIVVRFLHPLVTEFADWVLSWGGWIIPALIVVLMLIDTIKSVTSMLSFQKVLAEFNEKLTAQANELKASVKERAKEFEEGLLKKQENVDMKIAEMEAKRKQDKELAASMRKLKFNERRMLKSFPKMKVKRAAPFKNFNKSILRVDKQKRK | failed |
| MDINNKARIHWACRRGMRELDISIMPFFEHEYDSLSDDEKRIFIRLLECDDPDLFNWLMNHGKPADAELEMMVRLIQTRNRERGPVAI | not failed |
| MDINYERPDPYYLLNKIDKEEKNKNRGKLKIFFGYAAGVGKTYAMLRAAHYMKELGKDIVIGYIEPHARMDTMSLTKGLPQIPVKNIDYKGVILREFDVDKALLRKPEIILVDELAHTNAKSQRNKKRWKDIEELLDAGIDVYTTLNVQHIESLNDIVANITHVSVRETIPDKVFDDADKVELIDIEPDELLKRFTDGKIYRKEQVKRAFNNFFTKNNLYALREIALRRTADRVNFEIEIARLSKGQITVMATSDQILACIGTSPSSARIIRTAARMAESYHSKWIALYVDTGRSLGKADKETLNANFNLVELLGGELVTVHGENVADQIIRYAELRNTTKIVIGKNHKRTGTLLHFYAKDVVDKLMDSNSYIDVYMIPNSSYYRDHKNSILSKISIQHKGSVKDVLKAIIIMAITTDIAELFSYMGFKDVNVIMIFILGVIIVYMATKGQIMGIISSIAAVLVFNYRFTEPKNSFIVYDKSYLVTFPIMMIVAFIIGSLTNKVQKEAQDSNMREKRTQTLYIVSGKLLSAVGTSEVVSIGIKYISRLVNRNVICYLADTSNKLSTPFVYKKDKGAKEEIIMSKDENAAAYWTFLNGKESGCGTSTFYRAKGYYIPIKIKNKVLGVIGVSCPSGPLRPQKKAVVDTVTGQIAIALDREILSKEQEKSKVEIERERLRSNLLRSISHDLRSPLAGIKGAASTILENGELIDEKRKQELINGIYEDTEWLIRLIENLLSMTKFDEGNTKIKKDVELVEEVVSEAVQRSSKYFKNHKIKVSVPEDVIMVSMDGSLIEQVIINLLDNASKFSPKGSTIEIKVYEKKKDVVFEIIDEGQGISEDILPNIFDRFFTNGSKISDSRRGVGLGLAICKSIVEAHGGKIEAVNKGSGGAIFKFNIPKEL | failed |
| MDISGRDVETRLTLAREFMSGVDELPTVPDIVLRIAGKLNDPDVAIDEVADLLLQDQVLTARVVHLANSPLYSAARPISSIRDAVIYLGLDLLREAIFTCAIVDLFKTGKGPLNRSTLWAHSLGVARIAKLIAERTGFLNPVNVYVAGLLHDVGEVFINFFRGKEFSQVVTLVDEEKITFGQAEERLFGTSHCEVGFALAKRWSLNEFICDTILYHHDIEAVPYKQAAIVAMVAFADEYCTLRRLGFEGHKPVDSVRTLLENHPSWGVIRRSLGGSDFDEKLIVAELDSSIVEIRAAVDELFLL | failed |
| MDISILQAVLIGLWTAFCFSGMLLGLYTNRCIVLSLGVGVILGDIQTALAVGAISELAYMGFGVGAGGTVPPNPIGPGIFGTLMAITTAGTKGKITPEAALALSTPIAVGIQFLQTATYTAFAGAPETAKKALQAGNFRGFKIAANGTIWAFAGLGFGLGVLGALSTQTLTDLFALIPPVLLNGLTLAGKMLPAIGFAMILSVMAKKELIPYILLGYVLAVYFGLPVLTPTANGDGVLTSVATNSVLGVPTIGVAIIATIFALLDIFRKPAAPTKETKTEGDNQDDWI | failed |
| MDITEKLRLITRNAEEVVTEEELRQLIETKEKPRAYVGYEPSGEIHLGHMMTVQKLMDLQEAGFEIIVLLADIHAYLNEKGTFEEIAEVADYNKKVFIALGLDESRAKFVLGSEYQLSRDYVLDVLKMARITTLNRARRSMDEVSRRKEDPMVSQMIYPLMQALDIAHLGVDLAVGGIDQRKIHMLARENLPRLGYSSPVCLHTPILVGLDGQKMSSSKGNYISVRDPPEEVERKIRKAYCPAGVVEENPILDIAKYHILPRFGKIVVERDAKFGGDVEYASFEELAEDFKSGQLHPLDLKIAVAKYLNMLLEDARKRLGVSV | not failed |
| MDIVTNKIVVEKYNFETTMEENQPFENKIELEVHEVEPVDGNVELMAKGKIFKITIPFLLVLENFRIDGRISRIIQLKDFFGQFSDLEAKDVEGLSNPLIDYIKRLTYDVTEIAFDEPGVSLDF | failed |
| MDIYIGFSLQIYVIQVRRKPTENLQKTYKKSGNGILFICLIANCEICGTNLLTSELYIPTFTSKTKVMKKRVSAVVIVLVCLGGVACIKTLSTSSVGLPQLAFDNIEALASGESSAYRCYGIGDVDCHGDKVDKMYSGYSLK | failed |
| MDKDYYKIMGVSQDASEKDIKMAYRKLARKYHPDISKEPDAEERFKEMAEAYEVLKDPKKRSEYDQYLKYKEFNPQSDGFTGRRTQEQPFQEFHFDSDFFETLFGHSRYQQQPMTGQNYHGKITISLEEAYHGAVKNLQVPVEQGTETKIQTLKVKIPAGVKSGQQIRLAGQGGSGSGGGARGDLYLTVEVMKHPIFDVMENDIYLTLPVTPWEAALGATVVIPTLAGKIDLKIPPGSQGGQKLRIKNRGLPGSPPGNQYVLLKIITPPAQTEEAKALYKKMAEVMPYNPRKTMGV | failed |
| MDKEQRNIVVFNASKRELFTSSSGYKSLQKKLRAQWKIQSIKEELTLEKLQGVKLWITAGPREKFTAAELEVLKQYLDSGGALLVMIGEGGELKYDTNINFLLEEFGIMVNNDAVIRNVYYKYFHPKEALVSNGVLNREISRAAGKVVTGVIDEENTGNNSQALTFVYPYGATLNVMKPAVAILSTGSVCFPLNRPVLAFHHSKNAGKLAVLGSCHMFSDQYLDKEENSRIMDVVFQWLTTDSIHLNQIDAEDPEITDYMMLPDTGSLSERLRVCLQEGDENPRDFTSLFDMSLLKLHTNTLPSVLDAYKQLNVKHEALQLITPQFETPLPPLQPAVFQPAFRDLPPPMLDLFDLDETFSSEKVRLAQLSNKCTDDDLEFYVRKCGDILGVTGNLDKDKRDAKHILEHVFFQVVEFKKLNEEHDVDTAEARFSMY | not failed |
